Assay results reported in publication PMC12122940.

Target: H3 1–19 peptide

Chain of PRDM9 (195–415) (Q9NQV7 195-415): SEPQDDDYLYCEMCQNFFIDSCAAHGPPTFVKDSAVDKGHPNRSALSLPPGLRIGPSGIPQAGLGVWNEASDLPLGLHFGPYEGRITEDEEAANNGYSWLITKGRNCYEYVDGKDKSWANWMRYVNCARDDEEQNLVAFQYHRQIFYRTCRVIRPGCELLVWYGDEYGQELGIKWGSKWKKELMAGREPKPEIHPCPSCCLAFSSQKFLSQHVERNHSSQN

methylation of the soluble peptide (2.5 µM peptide, 50 nM enzyme, radioactively labeled AdoMet, autoradiography); ratio of the initial methylation rates H3K4/H3K36 (fold (against the H3K36 26-44 peptide)): 5.2
Substance: PRDM9 (195–415) (from UniProt Q9NQV7 195-415) (enzyme)
